± gives the uncertainty stated by the source.
assay: amyloid nucleation score (Sup35N fusion, yeast selection) (log enrichment); library NNK3; higher = more nucleation; inactive = no reads after selection
Outline: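 Peptides of 20 random codons fused to Sup35N were expressed in psi-negative yeast, induced 24 hours with 100 μM copper sulfate, then grown 7 days at 30°C on medium lacking adenine and uracil. Input and output plasmid inserts were Illumina-sequenced. Nucleation score is the DiMSum log enrichment of output over input reads, centred on the mode score of non-aggregating sequences, excluding sequences with under 100 input reads. Random libraries had three technical output replicates.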

Substance	amyloid nucleation score
QDFYSACSNIVNST	inactive
SGRSRWNAH	inactive
MSAGCLLNL	inactive
ISMFDPLRCPWSNYGMCG	inactive
IYTSGWINYSIARFACCIRW	inactive
PVKGSFDT	inactive
VTLQLPDCFGRACIGLAYIA	inactive
RRFIIPRAVAFTSL	inactive
CTSLRLESPDFFSKRERSSN	inactive
GSALVLCELGSVAKSLSGNL	inactive
LGYIQEN	inactive
KLMPVIVTFNRYFFGQVMEE	1.2 ± 0.14
NGFIILADCQMVCLRTSDLM	1.77 ± 0.065
RDYKLVRHHSHKDVLSCILW	inactive
RRSNSHYM	inactive
FLVNFGKDFEIWREHYGVTI	-0.484 ± 1.4
YTFNVNITPFTMYHSFIYFS	3.08 ± 0.051
NCIAWYQW	-0.393 ± 0.7
SWYAKGFI	inactive
QTVTRLTNSNSKLYFQPDVA	inactive
IQIVSWQSAL	inactive
LLVSFLVVLSWAVRFSRMGD	inactive
NNMVHVVDKFFSLILVMVFS	inactive

Substance	amyloid nucleation score
GNNPLVVKNLNRKCL	-0.357 ± 0.51
SWQNWGRGGCSGLFVSRWVT	inactive
SIFCFDYWQDIGTFMPSAVK	inactive
LMWTGF	inactive
WRGYPFAPVFYLI	inactive
YLNRLCLNTNISRAVRCY	inactive
TCSSACFVENRDTNHNGHGG	inactive
TLTSYEKIPSMSLSG	inactive
KNSLDALFYVTALFCTLSGD	-0.122 ± 0.38
IYSHSPLFLRRYGAIYESCR	inactive
MNYWHNYFSLYDHLLMSKCC	inactive
MEFHYWTGVCQVSK	inactive
SCSNCVHISRTAILTGPRSA	inactive
STIAGPFLKFARSGTCPPVP	-0.776 ± 1.8
LASFEIRNREY	0.519 ± 0.33
MTMQKSSIFFLHEAKLNFSA	inactive
DPYSDVQDKDTSDAGYASRV	inactive
LYCRLCVSIFM	-0.02 ± 1.1
VLGPGIIRTEQVLTVVRTMA	inactive
FWWLEI	inactive
SSSKNACDPC	inactive
CIICFGPRNFESRRKQPDWR	inactive
LVPVMTFNWPKPSNGVSAVA	-0.413 ± 1

Substance	amyloid nucleation score
RKLGLEYGITMSCASLLALR	inactive
MPCLYALLYG	inactive
PGDVRLGDIVLIFFLRM	0.781 ± 0.26
MFRDIWLFGPISWIYECCRS	2.36 ± 0.091
FPHSSGCYDAVTWSSWNGGH	inactive
GLFRGYGVTLVRRLWSRIMY	inactive
SLTFTLCRVHGGRESRVSLG	0.319 ± 0.81
IGIEFLNLKHLPSYLLSVRF	inactive
GLFCPVYS	inactive
ALLFLIERALCPSCK	inactive
VIFKKGLRLFTSSCDWSISD	inactive
AHDRIFWNGPYNRISYAAFR	inactive
NIGWV	-0.568 ± 1.3
QKLNIAFRWFWWFCTLSCNS	inactive
IVNIKMNLWFYGNFMLWASS	inactive
VLMGMRCEREFPE	inactive
CEFRIFNWSFCSKRVGLRYV	inactive
PNDVRNAFFCPPPTKKPTVA	inactive
GGLTSYDQ	inactive
DTLYGDYQGQRYSVALMKCV	inactive
FVPCVWLGSGNCLCTDTMLW	1.63 ± 0.11
IDRHAPSEESVPFWSYWNNG	inactive
YSVFGVNKQMAFAVCDWHHC	0.477 ± 0.17

Substance	amyloid nucleation score
MCEMVFTWDSWLLRRIRQDW	1.5 ± 0.087
LGRRLAMSV	0.692 ± 0.19
VGQLFTSSSSVVSSGCMIVD	inactive
NCNTVKYGMFGAWSNSAV	0.313 ± 0.18
ISLVLVCYKASVITLWENQW	-0.627 ± 1.4
VKEPPTCVTCSAHSIRSGYS	inactive
KSSMKLLSPP	inactive
LVEMKALRTD	inactive
HLVMGWLTKPSSIFGLEDKR	1.13 ± 0.11
LFMLIFGCVHARNYFKPKKV	inactive
SYVICGLYIFGCIFRSFTLP	inactive
YCCAKL	inactive
TLYVIGLPFDLALMGI	inactive
FRSEVGVNFNRTLWRYNRVY	inactive
RLVAFGRRWDESSKVECMWS	inactive
LSRLFLSRVGHVIYTKSSVD	inactive
VCLMNVSLRRSSFGATTVLA	inactive
WVYDSTIRHHH	inactive
VSVEFRSDSARWGNDVCEET	inactive
CNYFVF	inactive
FDVDGLILFICWCMQRAHM	inactive
SFNHFQCLFISPLTRCARGV	1.51 ± 0.13
SFTYTRQSGSNLEAVGTFPH	-0.373 ± 0.69

Substance	amyloid nucleation score
GIRCSLVY	inactive
KVCHSWVWHILGSLDYITRG	inactive
CPMVLSQEGSTAPEQCVGLG	inactive
DNSVALIDYSWAVTRI	inactive
TTEPDRATLSYR	inactive
FMVLRYCVILWGFWEYMSSA	inactive
YLTNNLFRFLEYR	inactive
FDKGFLMTLNTLAVLSNQE	inactive
LMANVGPAWLQSFAIRGTSH	inactive
CKFFQGKEEVS	inactive
FIRIHRNAI	inactive
LMSTYVTFFRSCKPSSCVFV	inactive
MRTINIS	inactive
PPTLQMVTVVGPKGWKVMFS	inactive
SIVQLNYTELAVKWSLVS	inactive
NILFWSF	inactive
FTGFN	inactive
DMKNWPKDYQ	inactive
SWVNDRQNFPASLLYRDYLL	inactive
SNQLNAN	inactive
DRTMQVIIYARQRVPLKWVS	inactive
YMSRKPV	inactive
HVYNLLRVVF	inactive

Substance	amyloid nucleation score
ELALISHTLGSSATPNWFTV	inactive
GCLECL	inactive
LCYAWRSGSNTYMHMMNWSM	inactive
SCVARYDRAAHRRVIETRLG	inactive
VDWWSALEDYYSLELLMEVK	inactive
TCVLLCDVFFHGLVLDLKLV	inactive
PGCTTN	inactive
LIHFV	inactive
RPLTVKKY	-0.538 ± 1.4
LRAICKSCGVASGYVAAPRA	-0.478 ± 0.52
SNASQLY	inactive
WHIEVC	inactive
SCGKGRYWVLNAMINPICKQ	1.14 ± 0.096
KAERVVRA	inactive
QFIWRLLRDSTKNFTLLSYK	inactive
TRLDGHTYMFTL	inactive
AYSFNSFRASGRHLWFTVCP	inactive
LDYNVRVGIVSRFTQLTHVN	inactive
RLVSLSPNLLMYSNVLDYLK	inactive
SSFDSAIEA	inactive
PLFFMPGNKWTYFSKSSADT	inactive
CTTVDVGALVDGESNHCISL	inactive
SRQARCKPCVSCWDRCMWMI	inactive

Substance	amyloid nucleation score
VGKWGFQEGST	inactive
FKTFSFFKLFCTYCYYTLTE	inactive
NRGNSIRRDNWFRVILRTCH	inactive
NCMYSLSMQREPFYPSRGVD	inactive
QGIGGATVTFLRLFV	inactive
VIVVREYVVWKNISMIVDYL	-0.019 ± 0.24
CVNVLQPGVTHSRMANLCSG	inactive
YNMFACGVCTLFKVGKANKF	2.96 ± 0.074
SRRFFRWLSYTFGDGRGWLL	inactive
FNSDKMAPLTGLCEVVRFGR	inactive
CCYLLHGGRILMIVVMSHHL	inactive
FLWGICWYRMVMKAHFDFIC	inactive
GVFWLLNICQYGPRLRHMWS	inactive
FIMRSSSC	inactive
GIKVLTTCGHKKFVGINSVM	inactive
IRSERTLDSATWDPFVVLKD	inactive
PSYFEYFVRIGFFG	inactive
CFRCS	inactive
YRVSEELTLLY	inactive
PWRCKRWHFYMYVDCANLRQ	inactive
WSFQLSVLFVCNLITYNCV	1.68 ± 0.069
VIHMH	inactive
HSRTMVLMCIAMIRVLGYGF	inactive

— the supplement of paper PMC12042874
